Results taken from the supplement of paper PMC6757056.
± gives the standard deviation of the averaged measurements.

B1: library; a variant is named by its letters at N, in order (parent)
chain: GCUGUCACCGGUGUAUUACCCUAGUGGUCGACCGGUCUGAUGAGUCUNNNNNNAGACGAAACAGC

Key:
hypoxanthine [1] = variants of: B1; assay: normalized RNA/DNA level with ligand (relative to sTRSVctl = 100) (log10 (% of sTRSVctl)); ligand: hypoxanthine (xanthine aptamer); higher = less ribozyme self-cleavage, higher mRNA level; conditions: ligand concentration (+) RNA-Seq: 5 mM, HEK293T, reporter: mCherry (pCS4076), ligand present: yes
Summary of the method: (§1)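 RNA level was computed as RNA reads over DNA reads divided by a spiked-in non-cleaving sequence or by the top sequences, then scaled and log-transformed. Scaling was ×100 with log10, the top group was 25 sequences, and the threshold was ≥100 DNA reads. The reads came from HEK293T cells transfected at 4 µg per 6-well well with ribozyme switch library plasmids (mCherry, or eGFP in some ligand experiments). Total RNA was extracted with EDTA 72 h after transfection, with any ligand added 1 h before it.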

hypoxanthine [2] = variants of: B1; assay: normalized RNA/DNA level without ligand (relative to sTRSVctl = 100) (log10 (% of sTRSVctl)); ligand: hypoxanthine (xanthine aptamer); higher = less ribozyme self-cleavage, higher mRNA level; conditions: HEK293T, reporter: mCherry (pCS4076), ligand present: no
Summary of the method: as §1

Row | Variant | normalized RNA/DNA level with ligand (log10) (hypoxanthine [1]) | normalized RNA/DNA level without ligand (log10) (hypoxanthine [2])
1 | CCGACA | 1.978 ± 0.01 | 1.79 ± 0.025
2 | ACUAUC | 1.98 ± 0.03 | 1.95 ± 0.046
3 | ACUAUG | 1.89 ± 0.021 | 1.48 ± 0.015
4 | ACUAUU | 1.928 ± 0.012 | 1.82 ± 0.03
5 | CCCUGG | 1.91 ± 0.028 | 1.8 ± 0.05
6 | CCCUGC | 2.04 ± 0.059 | 1.901 ± 0.0066
7 | CCCUGU | 1.94 ± 0.078 | 1.94 ± 0.053
8 | CCGCGC | 1.963 ± 0.0058 | 1.7 ± 0.06
9 | CCGCGA | 1.88 ± 0.018 | 1.62 ± 0.016
10 | CCGCGU | 1.97 ± 0.023 | 1.71 ± 0.064
11 | GCGCAU | 1.89 ± 0.026 | 1.55 ± 0.044
12 | GCGCAA | 1.873 ± 0.014 | 1.52 ± 0.023
13 | CCCUCC | 1.95 ± 0.065 | 2 ± 0.08
14 | CCCUCA | 1.978 ± 0.0074 | 1.9723 ± 0.00098
15 | CCCUCG | 1.93 ± 0.087 | 1.8103 ± 0.0013
16 | CCUACU | 1.98 ± 0.13 | 1.96 ± 0.021
17 | CCUACC | 1.937 ± 0.0065 | 1.86 ± 0.049
18 | CCUACG | 1.94 ± 0.073 | 1.9 ± 0.041
19 | GCGACU | 1.92 ± 0.026 | 1.755 ± 0.013
20 | UCCUUG | 1.91 ± 0.034 | 1.64 ± 0.022

Row | Variant | normalized RNA/DNA level with ligand (log10) (hypoxanthine [1]) | normalized RNA/DNA level without ligand (log10) (hypoxanthine [2])
21 | UCCUUU | 2.01 ± 0.04 | 1.94 ± 0.032
22 | UCCUUC | 1.93 ± 0.046 | 1.89 ± 0.062
23 | UCCUUA | 1.956 ± 0.015 | 1.87 ± 0.069
24 | UCGAUA | 1.91 ± 0.026 | 1.57 ± 0.032
25 | UCGAUG | 1.922 ± 0.011 | 1.62 ± 0.033
26 | UCGAUU | 1.912 ± 0.013 | 1.55 ± 0.12
27 | CCGGCU | 2.04 ± 0.043 | 1.99 ± 0.024
28 | CCGGCC | 1.98 ± 0.029 | 2 ± 0.051
29 | CCGGCA | 1.97 ± 0.03 | 1.895 ± 0.0097
30 | CCGGCG | 1.94 ± 0.13 | 1.72 ± 0.14
31 | ACCUGU | 1.9472 ± 0.00096 | 1.81 ± 0.033
32 | ACCUGC | 1.99 ± 0.051 | 1.912 ± 0.016
33 | ACGUUA | 1.867 ± 0.015 | 1.62 ± 0.095
34 | ACGUUC | 1.94 ± 0.039 | 1.79 ± 0.024
35 | ACGUUU | 1.84 ± 0.022 | 1.53 ± 0.035
36 | GCCUUU | 1.94 ± 0.041 | 1.92 ± 0.039
37 | ACGGCU | 1.88 ± 0.034 | 1.6 ± 0.016
38 | ACGGCA | 1.902 ± 0.019 | 1.702 ± 0.008
39 | ACGGCC | 1.96 ± 0.02 | 1.88 ± 0.029
40 | UCGUGU | 1.82 ± 0.059 | 1.33 ± 0.041

Row | Variant | normalized RNA/DNA level with ligand (log10) (hypoxanthine [1]) | normalized RNA/DNA level without ligand (log10) (hypoxanthine [2])
41 | GCGCCA | 1.97 ± 0.025 | 1.711 ± 0.01
42 | GCGCCG | 1.91 ± 0.03 | 1.44 ± 0.017
43 | GCGCCU | 2 ± 0.055 | 1.78 ± 0.052
44 | UCGCUU | 1.984 ± 0.0024 | 1.7 ± 0.035
45 | UCGCUG | 1.98 ± 0.069 | 1.803 ± 0.0034
46 | UCGCUC | 1.98 ± 0.049 | 2.109 ± 0.015
47 | UCGCUA | 1.96 ± 0.037 | 1.725 ± 0.0084
48 | GCGGUU | 1.919 ± 0.018 | 1.72 ± 0.056
49 | GCGUUU | 1.965 ± 0.002 | 1.74 ± 0.11
50 | GCGUUC | 1.93 ± 0.059 | 1.58 ± 0.11
51 | ACGUGC | 1.81 ± 0.023 | 1.515 ± 0.0062
52 | CCGAUA | 1.92 ± 0.049 | 1.72 ± 0.059
53 | CCGAUG | 1.82 ± 0.064 | 1.42 ± 0.049
54 | CCGAUC | 1.99 ± 0.037 | 1.87 ± 0.056
55 | ACCUUA | 1.94 ± 0.068 | 1.86 ± 0.03
56 | ACCUUU | 1.97 ± 0.034 | 1.89 ± 0.0069
57 | ACCUUC | 1.958 ± 0.018 | 1.96 ± 0.03
58 | UCUAUA | 1.893 ± 0.016 | 1.858 ± 0.013
